According to publication PMC6440998, “Tunable microsecond dynamics of an allosteric switch regulate the activity of a AAA+ disaggregation machine” (Nature Communications, 2019):

B1: Thermus thermophilus ClpB, wild type (natural protein)
chain: not shown
notes: ClpB of Thermus thermophilus, cloned into pET28b with a six-histidine tag preceded by a TEV site; Homohexamer; also called TT ClpB; WT; source: E. coli BL21 (DE3) pLysS, purified (Ni-NTA, HiPrep DEAE FF)
B2: ClpB S428C-S771C, double-labeled subunit (natural protein)
chain: not shown
modifications: Alexa 488 C5 maleimide (donor) and Alexa 594 C5 maleimide (acceptor) on the cysteines at 428 and 771
notes: ClpB of Thermus thermophilus with two cysteines for the dyes; S428C-S771C is the main construct; also called double-labeled subunits; labeled ClpB; source: E. coli BL21 (DE3) pLysS, purified (Ni-NTA, HiPrep DEAE FF), labeled

Experiments:
[1] = molecular target: the molecule itself; test: not stated; test of hexamer assembly shown in Supplementary Figs. 3 and 13 and the supplementary section “Validating the structural integrity of ClpB hexamers”; 2 mM ATP for the labeled sample
[2] = molecular target: B1; test: native gel or EMSA + SEC; native gel electrophoresis and gel filtration chromatography of reassembled mixed labeled ClpB and of the WT; details: both partners purified

With B1 the “stoichiometry N” value [1] was 6.

B2: binds [2].
